Data reported in patent publication US9481899B2, “Methods and compositions for producing hydrocarbons” (priority 2008, dated 2016).
Where two headings read alike, the source gives them in different places.

T1: PCC7942_orf1594 protein (Synechococcus elongatus, UniProt Q54765)
T1 construct: made in house; host or cells: E. coli BL21 (DE3)
T1 sequence (Q54765 1-341): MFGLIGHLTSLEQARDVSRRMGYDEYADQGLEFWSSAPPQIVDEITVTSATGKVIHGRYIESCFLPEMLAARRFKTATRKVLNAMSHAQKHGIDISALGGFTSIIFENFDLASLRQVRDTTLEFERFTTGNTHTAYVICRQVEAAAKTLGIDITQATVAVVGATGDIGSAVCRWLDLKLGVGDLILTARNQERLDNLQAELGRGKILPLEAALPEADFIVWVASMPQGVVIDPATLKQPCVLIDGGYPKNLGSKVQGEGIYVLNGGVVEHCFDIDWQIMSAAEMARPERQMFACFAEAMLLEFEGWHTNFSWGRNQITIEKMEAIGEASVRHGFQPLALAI


How the values were obtained:
[1] = biological target: T1, PCC7942_orf1594 protein; assay: Acyl-ACP or acyl-CoA reductase enzyme assay; assay type: biochemical, Synechococcus elongatus PCC7942; conditions: for reduction to fatty aldehyde: 10 μM enzyme, MgCl2, NADPH, 1 h at 37° C.
Protocol: The genomic DNA encoding S. elongatus […] orf1594 (SEQ ID NO:65) was cloned into the NcoI and XhoI sites of vector pET-28b under the control of the T7 promoter. The resulting PCC7942_orf1594 protein contained a C-terminal His-tag. An E. coli BL21 strain (DE3) (Invitrogen) was transformed with the plasmid and PCC7942_orf1594 protein was expressed and purified as described in Example 22. The protein solution was stored in the following buffer: 50 mM sodium phosphate, pH 7.5, 100 mM NaCl, 1 mM THP, 10% glycerol. Protein concentration was determined using the Bradford assay (Biorad). 2 mg/mL of PCC7942_orf1594 protein was obtained.
To test PCC7942_orf1594 protein for acyl-ACP or acyl-CoA reductase activity, the following enzyme assays were set-up. 100 μL reactions were set-up in 50 mM Tris-HCl buffer at pH 7.5 with the following components at their respective final concentrations: 10 μM of purified PCC7942_orf1594 protein, 0.01-1 mM acyl-CoA or acyl-ACP, 2 mM MgCl2, 0.2-2 mM NADPH. The reactions were incubated for 1 h at 37° C. and where stopped by adding 100 μL ethyl acetate (containing 5 mg/l 1-octadecene as internal standard). Samples were vortexed for 15 min and centrifuged at max speed for 3 min for phase separation. 80 μL of the top layer were transferred into GC glass vials and analyzed by GC/MS as described in Example 26. The amount of aldehyde formed was calculated based on the internal standard.
Next, the stereospecific hydride transfer from NADPH to a fatty aldehyde catalyzed by PCC7942_orf1594 was examined. Deutero-NADPH was prepared according to the following protocol. 5 mg of NADP and 3.6 mg of D-glucose-1-d was added to 2.5 mL of 50 mM sodium phosphate buffer (pH 7.0). Enzymatic production of labeled NADPH was initiated by the addition of 5 units of glucose dehydrogenase from either Bacillus megaterium (USB Corporation) for the production of R-(4-^2H)NADPH or Thermoplasma acidophilum (Sigma) for the production of S-(4-^2H)NADPH. The reaction was incubated for 15 min at 37° C., centrifuge-filtered using a 10 KDa MWCO Amicon Ultra centrifuge filter (Millipore), flash frozen on dry ice, and stored at −80° C.
The in vitro assay reaction contained 50 mM Tris-HCl (pH 7.5), 10 μM of purified PCC7942_orf1594 protein, 1 mM octadecanoyl-CoA, 2 mM MgCl2, and 50 μL deutero-NADPH (prepared as described above) in a total volume of 100 μL. After a 1 h incubation, the product of the enzymatic reaction was extracted and analyzed as described above. The resulting fatty aldehyde detected by GC/MS was octadecanal (see FIG. 34). Because hydride transfer from NADPH is stereospecific, both R-(4-^2H)NADPH and S-(4-^2H)NADPH were synthesized.

[2] = tested on: E. coli MG1655; assay: Coexpression of decarbonylase and aldehyde-generating enzyme in E. coli, GC-MS of hydrocarbons; assay type: cell-based; conditions: for Production of Alkanes and Alkenes: alkane/alkene biosynthetic polypeptide coexpressed in E. coli with the aldehyde biosynthetic polypeptide of the same table row; for fatty aldehyde decarbonylase activity in E. coli: cotransformed with S. elongatus PCC7942_1594 into E. coli MG1655, M9 minimal media, 37° C.
From the text: Seven cyanobacteria, whose complete genome sequences are publicly available, were selected for verification and/or detection of alkane biosynthesis: Synechococcus elongatus PCC7942, Synechococcus elongatus PCC6301, Anabaena variabilis ATCC29413, Synechocystis sp. PCC6803, Nostoc punctiforme PCC73102, Gloeobacter violaceus ATCC 29082, and Prochlorococcus marinus CCMP1986. Only the first three cyanobacterial strains from this list had previously been reported to contain alkanes (Han et al., J. Am. Chem. Soc. 91:5156-5159 (1969); Fehler et al., Biochem. 9:418-422 (1970)). The strains were grown photoautotrophically in shake flasks in 100 mL of the appropriate media (listed in Table 8) for 3-7 days at 30° C. at a light intensity of approximately 3,500 lux. Cells were extracted for alkane detection as follows: cells from 1 mL culture volume were centrifuged for 1 min at 13,000 rpm, the cell pellets were resuspended in methanol, vortexed for 1 min and then sonicated for 30 min. After centrifugation for 3 min at 13,000 rpm, the supernatants were transferred to fresh vials and analyzed by GC-MS. The samples were analyzed on either 30 m DP-5 capillary column (0.25 mm internal diameter) or a 30 m high temperature DP-5 capillary column (0.25 mm internal diameter) using the following method.
After a 1 μL splitless injection (inlet temperature held at 300° C.) onto the GC/MS column, the oven was held at 100° C. for 3 mins. The temperature was ramped up to 320° C. at a rate of 20° C./min. The oven was held at 320° C. for an additional 5 min. The flow rate of the carrier gas helium was 1.3 mL/min. The MS quadrapole scanned from 50 to 550 m/z. Retention times and fragmentation patterns of product peaks were compared with authentic references to confirm peak identity.
The genomic DNA encoding Synechococcus elongatus PCC7942 orf1594 (YP_400611; putative aldehyde-generating enzyme) (SEQ ID NO:65) was amplified and cloned into the NcoI and EcoRI sites of vector OP-80 (pCL1920 derivative) under the control of the Ptrc promoter. The resulting construct (“OP80-PCC7942_1594”) was transformed into E. coli MG1655 and the cells were grown at 37° C. in M9 minimal media with 1% (w/v) glucose as carbon source and supplemented with 100 μg/mL spectinomycin. When the culture reached OD600 of 0.8-1.0, it was induced with 1 mM IPTG and cells were grown for an additional 18-20 h at 37° C. Cells from 0.5 mL of culture were extracted with 0.5 mL of ethyl acetate. After sonication for 60 min, the sample was centrifuged at 15,000 rpm for 5 min. The solvent layer was analyzed by GC-MS as described in Example 1.
The genomic DNA encoding Synechococcus elongatus PCC7942 orf1593 (YP_400610; putative decarbonylase) (SEQ ID NO:1) was amplified and cloned into the NdeI and XhoI sites of vector OP-183 (pACYC derivative) under the control of the Ptrc promoter. The resulting construct was cotransformed with OP80-PCC7942_1594 into E. coli MG1655 and the cells were grown at 37° C. in M9 minimal media supplemented with 100 μg/mL spectinomycin and 100 μg/mL carbenicillin. The cells were cultured and extracted as in Example 3 and analyzed by GC-MS as described in Example 1. […]

[3] = tested on: E. coli MG1655 ΔfadD lacZ::Ptrc-′tesA; assay: Decarbonylase expression in fatty aldehyde-producing E. coli strain expressing MSMEG_5739; assay type: cell-based; conditions: coexpressed with M. smegmatis carboxylic acid reductase MSMEG_5739
[4] = in the presence of 2 mM NADPH, read-out: Km for the reduction

Molecule | reduction to fatty aldehyde [1] | Production of Alkanes and Alkenes [2] | fatty aldehyde decarbonylase activity in E. coli [2] | conversion of fatty aldehydes provided by MSMEG_5739 to alkanes [3] | also measured
octadecenoyl-CoA | able to reduce | – | – | – | Km [1, 4]: 82 ± 22 µM
[2H]C1C=CN(C2OC(COP(=O)(O)OP(=O)(O)OCC3OC(n4cnc5c(N)ncnc54)C(OP(=O)(O)O)C3O)C(O)C2O)C=C1C(N)=O (stereo not drawn) [S-(4-^2H)NADPH] | – | – | – | – | stereospecific hydride transfer to fatty aldehyde ([1]; 1 mM octadecanoyl-CoA, deutero-NADPH, 1 h): Octadecanal with a plus one unit mass was observed
NADPH | – | – | – | – | Km ([1]; in the presence of 0.5 mM octadecanoyl-CoA, read-out: Km value for NADPH): 400 ± 80 µM
CCCCCCCCCCCCCCCCCC(=O)SCCNC(=O)CCNC(=O)[C@H](O)C(C)(C)COP(=O)(O)OP(=O)(O)OC[C@H]1O[C@@H](n2cnc3c(N)ncnc32)[C@H](O)[C@@H]1OP(=O)(O)O [octadecanoyl-CoA] | able to reduce | – | – | – | –
NC(=O)C1=CN([C@@H]2O[C@H](COP(=O)(O)OP(=O)(O)OC[C@H]3O[C@@H](n4cnc5c(N)ncnc54)[C@H](O)[C@@H]3O)[C@@H](O)[C@H]2O)C=CC1 [NADH] | – | – | – | – | support of reductase activity as electron donor ([1]; octadecanoyl-CoA, Mg2+): did not support reductase activity
octadecenoyl-ACP | able to reduce | – | – | – | Km [1, 4]: 7.8 ± 2 µM
SEQ ID NO: 5: Nostoc punctiforme PCC73102 Npun02004178, putative decarbonylase (protein, Nostoc punctiforme, Nostoc punctiforme PCC73102 Npun02004178, putative decarbonylase) MQQLTDQSKELDFKSETYKDAYSRINAIVIEGEQEAHENYITLAQLLPESHDELIRLSKMESRHKKGFEACGRNLAVTPDLQFAKEFFSGLHQNFQTAAAEGKVVTCLLIQSLIIECFAIAAYNIYIPVADDFARKITEGVVKEEYSHLNFGEVWLKEHFAESKAELELANRQNLPIVWKMLNQVEGDAHTMAMEKDALVEDFMIQYGEALSNIGFSTRDIMRLSAYGLIGA | – | yes | active fatty aldehyde decarbonylase | converts tetradecanal, hexadecenal and hexadecanal provided by the carboxylic acid reductase MSMEG_5739 to tridecane, pentadecene and pentadecane | –
SEQ ID NO: 7: Nostoc sp. PCC7210 alr5283, putative decarbonylase (protein, listed as Nostoc sp.) MQQVAADLEIDFKSEKYKDAYSRINAIVIEGEQEAYENYIQLSQLLPDDKEDLIRLSKMESRHKKGFEACGRNLQVSPDMEFAKEFFAGLHGNFQKAAAEGKIVTCLLIQSLIIECFAIAAYNIYIPVADDFARKITEGVVKDEYSHLNFGEVWLQKNFAQSKAELEEANRHNLPIVWKMLNQVADDAAVLAMEKEALVEDFMIQYGEALSNIGFTTRDIMRMSAYGLTAA | – | yes | active fatty aldehyde decarbonylase | converted fatty aldehydes provided by MSMEG_5739 to the corresponding alkanes | –
SEQ ID NO: 9: Acaryochloris marina MBIC11017 AM1_4041, putative decarbonylase (protein, listed as Acaryochloris marina) MPQTQAISEIDFYSDTYKDAYSRIDGIVIEGEQEAHENYIRLGEMLPEHQDDFIRLSKMEARHKKGFEACGRNLKVTCDLDFARRFFSDLHKNFQDAAAEDKVPTCLVIQSLIIECFAIAAYNIYIPVADDFARKITESVVKDEYQHLNYGEEWLKAHFDDVKAEIQEANRKNLPIVWRMLNEVDKDAAVLGMEKEALVEDFMIQYGEALSNIGFSTGEIMRMSAYGLVAA | – | yes | active fatty aldehyde decarbonylase | converted fatty aldehydes provided by MSMEG_5739 to the corresponding alkanes | –
SEQ ID NO: 15: Gloeobacter violaceus PCC7421 gll3146, putative decarbonylase (protein, listed as Gloeobacter violaceus) VNRTAPSSAALDYRSDTYRDAYSRINAIVLEGEREAHANYLTLAEMLPDHAEALKKLAAMENRHFKGFQSCARNLEVTPDDPFARAYFEQLDGNFQQAAAEGDLTTCMVIQALIIECFAIAAYNVYIPVADAFARKVTEGVVKDEYTHLNFGQQWLKERFVTVREGIERANAQNLPIVWRMLNAVEADTEVLQMDKEAIVEDFMIAYGEALGDIGFSMRDVMKMSARGLASAPRQ | – | yes | active fatty aldehyde decarbonylase | converted fatty aldehydes provided by MSMEG_5739 to the corresponding alkanes | –
